In experiment [1] the target is mNrxn1β^+SS4-FLAG (C-terminally FLAG-tagged mouse Nrxn1β containing the SS4 insert) (mouse) (UniProt P0DI97). The experiment is described as follows: saturation binding on cells with Scatchard analysis.
In experiment [2] the target is mNrxn1β^−SS4-FLAG (C-terminally FLAG-tagged mouse Nrxn1β lacking the SS4 insert) (mouse). Described as above.

Sequence of mNrxn1β^+SS4-FLAG (C-terminally FLAG-tagged mouse Nrxn1β containing the SS4 insert) (mouse) (P0DI97 47-468): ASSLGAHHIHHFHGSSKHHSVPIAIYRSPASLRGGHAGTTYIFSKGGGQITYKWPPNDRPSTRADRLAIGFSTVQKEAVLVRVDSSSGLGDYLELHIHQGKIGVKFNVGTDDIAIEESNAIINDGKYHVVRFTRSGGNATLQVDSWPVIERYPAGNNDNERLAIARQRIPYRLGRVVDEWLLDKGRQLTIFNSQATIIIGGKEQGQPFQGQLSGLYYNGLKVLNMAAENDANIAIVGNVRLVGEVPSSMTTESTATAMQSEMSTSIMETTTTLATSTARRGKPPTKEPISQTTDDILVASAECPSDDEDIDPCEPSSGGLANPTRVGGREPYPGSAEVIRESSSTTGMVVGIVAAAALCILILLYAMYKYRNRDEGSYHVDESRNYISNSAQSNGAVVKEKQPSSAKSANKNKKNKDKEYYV

The term Kd denotes the free concentration of one partner at which half of the binding sites on the other are occupied at equilibrium, for simple one-to-one binding. For “Ig-Clstn3 (Ig-fused calsyntenin-3) (from UniProt Q99JH7 20-956) (Fc fusion)”, the Kd in experiment [1] worked out at 51.4 nM; in experiment [2], 106 nM.

The values above are taken from paper doi:10.1101/2020.01.24.918722.
